Measurements from patent US9539367B2, “Gallium inhibits biofilm formation” (priority 2003, dated 2017).

Test system: P. aeruginosa biofilm
Assay: Biofilm formation of GFP-labeled P. aeruginosa in continuous culture flow cells
Format: cell-based
Conditions: for effect on P. aeruginosa biofilm formation: Fe chelation, concentrations that did not alter growth (lactoferrin 20 μg ml)

B1: conalbumin: Fe chelator (protein, UniProt P02789 20-705, looked up)
Ovotransferrin: APPKSVIRWCTISSPEEKKCNNLRDLTQQERISLTCVQKATYLDCIKAIANNEADAISLDGGQAFEAGLAPYKLKPIAAEVYEHTEGSTTSYYAVAVVKKGTEFTVNDLQGKTSCHTGLGRSAGWNIPIGTLLHRGAIEWEGIESGSVEQAVAKFFSASCVPGATIEQKLCRQCKGDPKTKCARNAPYSGYSGAFHCLKDGKGDVAFVKHTTVNENAPDQKDEYELLCLDGSRQPVDNYKTCNWARVAAHAVVARDDNKVEDIWSFLSKAQSDFGVDTKSDFHLFGPPGKKDPVLKDLLFKDSAIMLKRVPSLMDSQLYLGFEYYSAIQSMRKDQLTPSPRENRIQWCAVGKDEKSKCDRWSVVSNGDVECTVVDETKDCIIKIMKGEADAVALDGGLVYTAGVCGLVPVMAERYDDESQCSKTDERPASYFAVAVARKDSNVNWNNLKGKKSCHTAVGRTAGWVIPMGLIHNRTGTCNFDEYFSEGCAPGSPPNSRLCQLCQGSGGIPPEKCVASSHEKYFGYTGALRCLVEKGDVAFIQHSTVEENTGGKNKADWAKNLQMDDFELLCTDGRRANVMDYRECNLAEVPTHAVVVRPEKANKIRDLLERQEKRFGVNGSEKSKFMMFESQNKDLLFKDLTKCLFKVREGTTYKEFLGDKFYTVISSLKTCNPSDILQMCSFLEGK
With B1 the “effect on P. aeruginosa biofilm formation” value was “duplicated”.

B2: lactoferrin: Fe-binding protein (protein, UniProt P02788 20-710, looked up)
Lactotransferrin: GRRRSVQWCAVSQPEATKCFQWQRNMRKVRGPPVSCIKRDSPIQCIQAIAENRADAVTLDGGFIYEAGLAPYKLRPVAAEVYGTERQPRTHYYAVAVVKKGGSFQLNELQGLKSCHTGLRRTAGWNVPIGTLRPFLNWTGPPEPIEAAVARFFSASCVPGADKGQFPNLCRLCAGTGENKCAFSSQEPYFSYSGAFKCLRDGAGDVAFIRESTVFEDLSDEAERDEYELLCPDNTRKPVDKFKDCHLARVPSHAVVARSVNGKEDAIWNLLRQAQEKFGKDKSPKFQLFGSPSGQKDLLFKDSAIGFSRVPPRIDSGLYLGSGYFTAIQNLRKSEEEVAARRARVVWCAVGEQELRKCNQWSGLSEGSVTCSSASTTEDCIALVLKGEADAMSLDGGYVYTAGKCGLVPVLAENYKSQQSSDPDPNCVDRPVEGYLAVAVVRRSDTSLTWNSVKGKKSCHTAVDRTAGWNIPMGLLFNQTGSCKFDEYFSQSCAPGSDPRSNLCALCIGDEQGENKCVPNSNERYYGYTGAFRCLAENAGDVAFVKDVTVLQNTDGNNNEAWAKDLKLADFALLCLDGKRKPVTEARSCHLAMAPNHAVVSRMDKVERLKQVLLHQQAKFGRNGSDCPDKFCLFQSETKNLLFNDNTECLARLHGKTTYEKYLGPQYVAGITNLKKCSTSPLLEACEFLRK
B2 was tested, and the “effect on P. aeruginosa biofilm formation” value was “profoundly inhibited biofilm formation” and the “effect on established biofilm” value (once the biofilm was established) was “unable to alter the biofilm”.
